# Test results reported in article PMC5148741 (Journal of the American Chemical Society, 2016).
# Ends that are not written are not given here. * marks the point of attachment. FITC = O=C1OC2(c3ccc(O)cc3Oc3cc(O)ccc32)c2ccc(NC(=S)*)cc21
# Key:
# Assay in all cases: fluorescence polarisation
# [1] = biological target: maltose-binding protein (MBP) tagged TbtB
# [2] = biological target: MBP-TbtD
# [3] = biological target: TbtF
# [4] = biological target: MBP-TbtD; remark: listed apart in the source
Binder,Kd [1] [nM],Kd [2] [nM],IC50 [3] [nM],IC50 [4] [nM]
{FITC}-MDLNDLPMDVFELADSGVAVESLTAGHGMTEVGA [synthetic TbtA leader peptide derivatized with fluorescein isothiocyanate (FITC) at the N-terminus],~20000,~140,,
MDANDLPMDVFELADSGVAVESLTAGHGMTEVGASCNCFCYICCSCSSA [TbtA L(−32)A],,,1580 ± 360,1710 ± 470
MDLNDLPMAVFELADSGVAVESLTAGHGMTEVGASCNCFCYICCSCSSA [TbtA D(−26)A],,,8230 ± 1450,6000 ± 410
MDLNDLPMDVFELADSGVAVEALTAGHGMTEVGASCNCFCYICCSCSSA [TbtA S(−13)A],,,1410 ± 70,2760 ± 180
MDLNDLPMDVFELADAGVAVESLTAGHGMTEVGASCNCFCYICCSCSSA [TbtA S(−19)A],,,1570 ± 460,910 ± 110
MDLNDLPMDVFELADSGVAVASLTAGHGMTEVGASCNCFCYICCSCSSA [TbtA E(−14)A],,,1370 ± 150,4470 ± 960
MDLNDLPMDVFELAASGVAVESLTAGHGMTEVGASCNCFCYICCSCSSA [TbtA D(−20)A],,,1450 ± 460,4130 ± 1620
MDLNDLPMDVAELADSGVAVESLTAGHGMTEVGASCNCFCYICCSCSSA [TbtA F(−24)A],,,> 10000,1510 ± 90
MDLNDAPMDVFELADSGVAVESLTAGHGMTEVGASCNCFCYICCSCSSA [TbtA L(−29)A],,,> 10000,> 10000

# Further binders by falling IC50 [3], results first:
Kd [1] [nM],Kd [2] [nM],IC50 [3] [nM],IC50 [4] [nM],Binder
,,1270 ± 150,3460 ± 570,MDLNDLPMDVFALADSGVAVESLTAGHGMTEVGASCNCFCYICCSCSSA [TbtA E(−23)A]
,,990 ± 220,720 ± 70,MALNDLPMDVFELADSGVAVESLTAGHGMTEVGASCNCFCYICCSCSSA [TbtA D(−33)A]
,,980 ± 60,3680 ± 310,MDLNDLPMDVFELADSGVAVESLTAGAGMTEVGASCNCFCYICCSCSSA [TbtA H(−8)A]
,,940 ± 200,7280 ± 770,MDLNALPMDVFELADSGVAVESLTAGHGMTEVGASCNCFCYICCSCSSA [TbtA D(−30)A]
,,700 ± 40,3290 ± 680,MDLNDLPMDVFELADSGVAVESATAGHGMTEVGASCNCFCYICCSCSSA [TbtA L(−12)A]
,,670 ± 30,610 ± 30,MDLNDLPMDVFELADSGVAVESLTAGHGMTEVGASCNCFCYICCSCSSA [TbtA wild-type]
,,630 ± 60,1060 ± 60,MDLNDLPMDVFELADSGVAAESLTAGHGMTEVGASCNCFCYICCSCSSA [TbtA V(−15)A]
,,620 ± 40,2250 ± 200,MDLNDLPMDAFELADSGVAVESLTAGHGMTEVGASCNCFCYICCSCSSA [TbtA V(−25)A]
,,580 ± 50,1350 ± 140,MDLNDLPMDVFELADSGVAVESLTAGHGMTEAGASCNCFCYICCSCSSA [TbtA V(−3)A]
,,570 ± 70,1130 ± 80,MDLADLPMDVFELADSGVAVESLTAGHGMTEVGASCNCFCYICCSCSSA [TbtA N(−31)A]
,,530 ± 30,700 ± 20,MDLNDLPMDVFELADSGVAVESLTAGHGMTAVGASCNCFCYICCSCSSA [TbtA E(−4)A]
,,510 ± 60,450 ± 20,MDLNDLPMDVFELADSGVAVESLAAGHGMTEVGASCNCFCYICCSCSSA [TbtA T(−11)A]
,,490 ± 50,690 ± 40,MDLNDLPMDVFELADSGAAVESLTAGHGMTEVGASCNCFCYICCSCSSA [TbtA V(−17)A]
,,450 ± 30,490 ± 70,MDLNDLPMDVFELADSGVAVESLTAGHGATEVGASCNCFCYICCSCSSA [TbtA M(−6)A]
